# Laboratory results published in publication PMC6377645, “Structural insights into chaperone addiction of toxin-antitoxin systems” (Nature Communications, 2019).
# Where “and” joins values, the source holds several entries; their conditions need not be identical. Equal values may be shown once.
# B1: Mtb-HigA1 antitoxin, full length, untagged (natural protein)
# chain: MSIDFPLGDDLAGYIAEAIAADPSFKGTLEDAEEARRLVDALIALRKHCQLSQVEVAKRMGVRQPTVSGFEKEPSDPKLSTLQRYARALDARLRLVLEVPTLREVPTWHRLSSYRGSARDHQVRVGADKEILMQTNWARHISVRQVEVA
# notes: antitoxin HigA1 of the TAC system of Mycobacterium tuberculosis, untagged; Obtained only in complex with Mtb-SecB^TA (4:2 hetero-hexamer); also called TAC antitoxin
# B2: Mtb-SecB^TA chaperone (Rv1957), His6-tag removed (natural protein)
# chain: MTDRTDADDLDLQRVGARLAARAQIRDIRLLRTQAAVHRAPKPAQGLTYDLEFEPAVDADPATISAFVVRISCHLRIQNQAADDDVKEGDTKDETQDVATADFEFAALFDYHLQEGEDDPTEEELTAYAATTGRFALYPYIREYVYDLTGRLALPPLTLEILSRPMPVSPGAQWPATRGTP
# notes: SecB-like chaperone Mtb-SecB^TA (Rv1957) of Mycobacterium tuberculosis, 181 amino acids; untagged mass printed as 20,388 Da; Residues of the pET15b vector may remain after thrombin cleavage (surmised from the printed mass); For MST the protein was labelled with the dye NT-647; also called SecB-like chaperone; TA-associated SecB chaperone; not shown: His6, N-terminal, cleaved
# B3: Mtb-SecB^TA with a N-terminal His6-tag (before thrombin cleavage) (natural protein)
# chain: B2 chain
# notes: SecB-like chaperone Mtb-SecB^TA (Rv1957) of Mycobacterium tuberculosis, 181 amino acids; also called His6-Mtb-SecB^TA; not shown: His6, N-terminal, kept
# B4: ChAD peptide, Mtb-HigA1(104-116) (peptide)
# peptide: EVPTWHRLSSYRG
# notes: residues 104-116 of the antitoxin Mtb-HigA1 of Mycobacterium tuberculosis (chaperone addiction region); also called C4; 13-mer ChAD peptide
# Assays:
# [1] = molecular target: B2; test: native MS; Mtb-SecB^TA/HigA1 9.7 µM (hexamer) in 200 mM ammonium acetate pH 7, with 0 to 16 ChAD peptide molecules per hexamer; conditions: both partners purified
# [2] = molecular target: the molecule itself; test: SEC-MALS; Superdex 200 Increase 5/150; 20 mM MES, 200 mM NaCl, pH 6.5; 15 °C; Mtb-SecB^TA 49.1 µM, Mtb-SecB^TA/HigA1 6.5 µM, Mtb-HigA1^ΔC42 100 µM
# [3] = molecular target: B2; test: as above; conditions: both partners purified
# [4] = molecular target: B4; test: ITC; reverse conditions (protocol of the reverse titration not described); 12 °C; 20 mM MES, 200 mM NaCl, pH 6.5; conditions: both partners purified
# SEC-MALS = molecular target: the molecule itself; test: SEC-MALS
# [5] = molecular target: B2; test: MST; 100 nM NT-647-labelled Mtb-SecB^TA with 3 nM to 100 µM ChAD peptide; 20 mM MES, 200 mM NaCl, 0.025% Tween 20, pH 6.5; 22 °C; conditions: both partners purified
# [6] = molecular target: B2; test: ITC; ChAD peptide (80-620 µM) injected into Mtb-SecB^TA (18-48 µM) in the cell; 12 °C; 20 mM MES, 200 mM NaCl, pH 6.5; one set of sites; Kd and enthalpy printed once for direct and reverse conditions; conditions: both partners purified
# [7] = molecular target: B2; test: native MS; Mtb-SecB^TA 11.8 µM (tetramer) in 200 mM ammonium acetate pH 7, titrated with ChAD peptide at molar ratios 0 to 20 per tetramer; control peptides C2, C3, C7 at 8 peptides per tetramer; Kd fitted with UniDec, 4 sites, all KD's free; conditions: both partners purified
binder,measurement,setting,value
B1,stoichiometry N,[1],0.5 HigA1 chains per SecB^TA chain (printed as 4:2 Mtb-SecB^TA/HigA1)
same,stoichiometry N,[2],2
same,stoichiometry N,[3],0.5 HigA1 chains per SecB^TA chain (printed as 4:2 chaperone/antitoxin)
B2,stoichiometry N,[2],4
same,stoichiometry N,[4],2.2
B3,stoichiometry N,SEC-MALS,8 and 4
B4,Kd,[5],2.6 ± 0.6 µM
same,Kd,[6],1.9 ± 0.2 µM
same,dH,[6],-12 kcal/mol
same,stoichiometry N,[6],0.47
same,"Kd of the single binding events (four sites fitted, all KD's free)",[7],6 to 17 µM
same,stoichiometry N,[7],≤ 4 peptides per tetramer
